Test results taken from patent US6569434 (MERCK, dated 2003).

Biological target: T1, rat VEGF A subunit, 164 amino acid mature (secreted) form of the 190 amino acid translation product (rat, UniProt P16612 27-214)
T1 construct: also called VEGF AB, A subunit; A chain
T1 sequence: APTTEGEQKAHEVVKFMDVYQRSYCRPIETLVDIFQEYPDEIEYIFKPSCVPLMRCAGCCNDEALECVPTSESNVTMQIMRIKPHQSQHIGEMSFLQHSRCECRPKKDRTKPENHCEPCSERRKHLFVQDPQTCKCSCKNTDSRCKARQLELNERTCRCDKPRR
Assay: purified native VEGF AB reduced and carboxymethylated; subunits separated by C4 reverse phase HPLC and N-terminally sequenced; single 58 kDa band non-reduced against about 23 kDa reduced on SDS-PAGE

binding result: binds
B1: rat VEGF B subunit, 135 amino acid mature form derived from the 158 amino acid full length form (ligand)
chain: ALSAGNNSTEMEVVPFNEVWGRSYCRPMEKLVYIADEHPNEVSHIFSPSCVLLSRCSGCCGDEGLHCVALKTANITMQILKIPPNRDPHSYVEMTFSQDVLCECRPILETTKAERRKTKGKRKQSKTPQTEEPHL
notes: Native subunit purified from GS-9L conditioned medium as part of VEGF AB; also called VEGF AB, B subunit; B chain
